Laboratory results reported in the supplement of paper PMC9112550, “Optimization of the antimicrobial peptide Bac7 by deep mutational scanning” (BMC Biology, 2022).

tested on: Escherichia coli TOP10; assay: shrunken log2 fold change of peptide-encoding DNA abundance (4.5 h post-induction vs induction); higher = less antimicrobial activity (less host growth inhibition); settings: time post-induction: 4.5 h; library: site-saturation at positions 5, 18, 19, 20
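Note: peptides expressed intracellularly from a pBAD plasmid library in pooled LB shake-flask culture, induced with 0.3% L-arabinose, DNA abundance read by NGS, three biological replicates, DESeq2 with apeglm shrinkage.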

Sequence | shrunken log2 fold change
RRIRWRPPRLPRPRPRPADQPRP | 0.0591
RRIRWRPPRLPRPRPRPAEPPRP | 0.256
RRIRWRPPRLPRPRPRPAGLPRP | 0.289
RRIRWRPPRLPRPRPRPAGPPRP | 0.235
RRIRWRPPRLPRPRPRPAGRPRP | 0.695
RRIRWRPPRLPRPRPRPAGVPRP | 0.66
RRIRWRPPRLPRPRPRPAGWPRP | 0.922
RRIRWRPPRLPRPRPRPAHVPRP | -0.0191
RRIRWRPPRLPRPRPRPAIPPRP | 0.332
RRIRWRPPRLPRPRPRPAKLPRP | 0.0566
RRIRWRPPRLPRPRPRPAMKPRP | -0.0119
RRIRWRPPRLPRPRPRPANWPRP | 0.273
RRIRWRPPRLPRPRPRPARYPRP | -0.0422
RRIRWRPPRLPRPRPRPASRPRP | -0.00682
RRIRWRPPRLPRPRPRPAVWPRP | 0.32
RRIRWRPPRLPRPRPRPAYEPRP | -0.0308
RRIRWRPPRLPRPRPRPAYTPRP | 0.0906
RRIRWRPPRLPRPRPRPCDEPRP | -0.0781
RRIRWRPPRLPRPRPRPCDMPRP | -0.173
RRIRWRPPRLPRPRPRPCDQPRP | -0.0328
RRIRWRPPRLPRPRPRPCEVPRP | -0.00149
RRIRWRPPRLPRPRPRPCFYPRP | -0.249
RRIRWRPPRLPRPRPRPCGIPRP | 0.0389
RRIRWRPPRLPRPRPRPCHKPRP | -0.0267
RRIRWRPPRLPRPRPRPCHQPRP | -0.0867

Sequence | shrunken log2 fold change
RRIRWRPPRLPRPRPRPCIAPRP | 0.00205
RRIRWRPPRLPRPRPRPCKIPRP | -0.114
RRIRWRPPRLPRPRPRPCKMPRP | -0.184
RRIRWRPPRLPRPRPRPCNAPRP | -0.0905
RRIRWRPPRLPRPRPRPCQNPRP | -0.118
RRIRWRPPRLPRPRPRPCRIPRP | -0.113
RRIRWRPPRLPRPRPRPCSMPRP | -0.565
RRIRWRPPRLPRPRPRPCTAPRP | 0.119
RRIRWRPPRLPRPRPRPCTKPRP | 0.311
RRIRWRPPRLPRPRPRPCTSPRP | -0.174
RRIRWRPPRLPRPRPRPCWHPRP | -0.259
RRIRWRPPRLPRPRPRPCYCPRP | -0.247
RRIRWRPPRLPRPRPRPDCEPRP | 2.54
RRIRWRPPRLPRPRPRPDCRPRP | 0.0695
RRIRWRPPRLPRPRPRPDDNPRP | 0.174
RRIRWRPPRLPRPRPRPDDTPRP | 0.222
RRIRWRPPRLPRPRPRPDEAPRP | 0.0325
RRIRWRPPRLPRPRPRPDEKPRP | 0.0625
RRIRWRPPRLPRPRPRPDELPRP | 0.402
RRIRWRPPRLPRPRPRPDFDPRP | 0.0791
RRIRWRPPRLPRPRPRPDFIPRP | -0.395
RRIRWRPPRLPRPRPRPDFYPRP | -0.11
RRIRWRPPRLPRPRPRPDGKPRP | 0.00353
RRIRWRPPRLPRPRPRPDHAPRP | 0.391
RRIRWRPPRLPRPRPRPDHSPRP | -0.198

Sequence | shrunken log2 fold change
RRIRWRPPRLPRPRPRPDKLPRP | 0.161
RRIRWRPPRLPRPRPRPDKVPRP | 0.0749
RRIRWRPPRLPRPRPRPDLLPRP | 0.0586
RRIRWRPPRLPRPRPRPDMEPRP | -0.0114
RRIRWRPPRLPRPRPRPDMFPRP | -0.0661
RRIRWRPPRLPRPRPRPDPYPRP | -0.198
RRIRWRPPRLPRPRPRPDQDPRP | -0.0971
RRIRWRPPRLPRPRPRPDQLPRP | 0.066
RRIRWRPPRLPRPRPRPDQTPRP | -0.00176
RRIRWRPPRLPRPRPRPDSLPRP | -0.12
RRIRWRPPRLPRPRPRPDSYPRP | 0.00709
RRIRWRPPRLPRPRPRPDTAPRP | -0.192
RRIRWRPPRLPRPRPRPDTFPRP | -0.0255
RRIRWRPPRLPRPRPRPDTIPRP | -0.019
RRIRWRPPRLPRPRPRPDTTPRP | 0.255
RRIRWRPPRLPRPRPRPDWQPRP | 0.00408
RRIRWRPPRLPRPRPRPDYCPRP | -0.0321
RRIRWRPPRLPRPRPRPEANPRP | 1.14
RRIRWRPPRLPRPRPRPECHPRP | 0.563
RRIRWRPPRLPRPRPRPECNPRP | 0.457
RRIRWRPPRLPRPRPRPEDDPRP | 1.19
RRIRWRPPRLPRPRPRPEDPPRP | 0.157
RRIRWRPPRLPRPRPRPEDVPRP | 0.0895
RRIRWRPPRLPRPRPRPEETPRP | 0.0603
RRIRWRPPRLPRPRPRPEEWPRP | -0.0123

Sequence | shrunken log2 fold change
RRIRWRPPRLPRPRPRPEFCPRP | 0.335
RRIRWRPPRLPRPRPRPEFTPRP | 0.362
RRIRWRPPRLPRPRPRPEGCPRP | 1.22
RRIRWRPPRLPRPRPRPEHPPRP | 0.16
RRIRWRPPRLPRPRPRPEHQPRP | 0.263
RRIRWRPPRLPRPRPRPEKMPRP | -0.0237
RRIRWRPPRLPRPRPRPELAPRP | 0.758
RRIRWRPPRLPRPRPRPELRPRP | 0.0333
RRIRWRPPRLPRPRPRPEMKPRP | 0.271
RRIRWRPPRLPRPRPRPEMMPRP | 0.399
RRIRWRPPRLPRPRPRPENRPRP | -0.0139
RRIRWRPPRLPRPRPRPEPCPRP | 0.157
RRIRWRPPRLPRPRPRPEPSPRP | 0.39
RRIRWRPPRLPRPRPRPEQFPRP | 0.32
RRIRWRPPRLPRPRPRPESIPRP | 0.2
RRIRWRPPRLPRPRPRPESSPRP | 0.759
RRIRWRPPRLPRPRPRPETAPRP | 0.177
RRIRWRPPRLPRPRPRPETIPRP | 0.322
RRIRWRPPRLPRPRPRPEVEPRP | -0.016
RRIRWRPPRLPRPRPRPEVKPRP | 0.21
RRIRWRPPRLPRPRPRPEVVPRP | -0.0122
RRIRWRPPRLPRPRPRPEVYPRP | -0.0423
RRIRWRPPRLPRPRPRPEWEPRP | 0.00016
RRIRWRPPRLPRPRPRPEWHPRP | 0.595
RRIRWRPPRLPRPRPRPEWTPRP | 0.0673

Sequence | shrunken log2 fold change
RRIRWRPPRLPRPRPRPFAAPRP | 0.862
RRIRWRPPRLPRPRPRPFAQPRP | -0.0369
RRIRWRPPRLPRPRPRPFFWPRP | 1.17
RRIRWRPPRLPRPRPRPFGQPRP | -0.0338
RRIRWRPPRLPRPRPRPFHRPRP | -0.2
RRIRWRPPRLPRPRPRPFHWPRP | 0.175
RRIRWRPPRLPRPRPRPFIMPRP | -0.0374
RRIRWRPPRLPRPRPRPFKLPRP | -0.044
RRIRWRPPRLPRPRPRPFLVPRP | -0.293
RRIRWRPPRLPRPRPRPFMCPRP | -0.245
RRIRWRPPRLPRPRPRPFMQPRP | -0.261
RRIRWRPPRLPRPRPRPFNTPRP | -0.0751
RRIRWRPPRLPRPRPRPFPTPRP | -0.12
RRIRWRPPRLPRPRPRPFQHPRP | 0.0415
RRIRWRPPRLPRPRPRPFRHPRP | -0.0307
RRIRWRPPRLPRPRPRPFTHPRP | -0.297
RRIRWRPPRLPRPRPRPFTIPRP | -0.212
RRIRWRPPRLPRPRPRPFTKPRP | -0.151
RRIRWRPPRLPRPRPRPFWDPRP | 0.00494
RRIRWRPPRLPRPRPRPFYVPRP | -0.348
RRIRWRPPRLPRPRPRPFYWPRP | -0.151
RRIRWRPPRLPRPRPRPGCCPRP | 0.659
RRIRWRPPRLPRPRPRPGCEPRP | 0.901
RRIRWRPPRLPRPRPRPGEPPRP | 0.271
RRIRWRPPRLPRPRPRPGETPRP | 0.174

Sequence | shrunken log2 fold change
RRIRWRPPRLPRPRPRPGEVPRP | -0.0252
RRIRWRPPRLPRPRPRPGFAPRP | 0.382
RRIRWRPPRLPRPRPRPGFDPRP | 0.517
RRIRWRPPRLPRPRPRPGFHPRP | -0.0866
RRIRWRPPRLPRPRPRPGGNPRP | 0.0972
RRIRWRPPRLPRPRPRPGGSPRP | 0.341
RRIRWRPPRLPRPRPRPGHEPRP | 0.0994
RRIRWRPPRLPRPRPRPGHHPRP | 0.0195
RRIRWRPPRLPRPRPRPGKFPRP | 0.26
RRIRWRPPRLPRPRPRPGLAPRP | 0.505
RRIRWRPPRLPRPRPRPGLFPRP | 2.38
RRIRWRPPRLPRPRPRPGMEPRP | 0.302
RRIRWRPPRLPRPRPRPGMWPRP | 0.729
RRIRWRPPRLPRPRPRPGNSPRP | -0.22
RRIRWRPPRLPRPRPRPGPIPRP | 0.171
RRIRWRPPRLPRPRPRPGQGPRP | 0.522
RRIRWRPPRLPRPRPRPGRCPRP | 0.897
RRIRWRPPRLPRPRPRPGRMPRP | 0.000663
RRIRWRPPRLPRPRPRPGSEPRP | 0.385
RRIRWRPPRLPRPRPRPGSRPRP | 0.244
RRIRWRPPRLPRPRPRPGTVPRP | -0.148
RRIRWRPPRLPRPRPRPGWSPRP | 0.221
RRIRWRPPRLPRPRPRPGYWPRP | -0.00394
RRIRWRPPRLPRPRPRPHDHPRP | -0.152
RRIRWRPPRLPRPRPRPHDIPRP | 0.00165
